Reference: the supplement of paper PMC11780869

System: Bacillus subtilis
Experiment: cleaved RNA product abundance (RNA/gDNA barcode ratio) relative to median wild-type variant (ratio to wild type); higher = more accumulation of the downstream cleavage product
Conditions: cleavage site: cggR-gapA (positions -7 to +36 mutated)
Procedure: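 MPRA in B. subtilis. Mutagenized RNase Y cleavage-site regions (9% mutation rate) were inserted into a barcoded reporter mRNA (truncated aprE or tetM). Cells were grown in LB at 37°C to OD600 0.3. The cleaved RNA isoform was gel-purified and its barcodes counted; the RNA:gDNA barcode ratio was normalised to the median wild-type variant, and the median over barcodes is reported per variant. The printed sequence is the variable window only; the reporter flanks are not printed.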

[1] = experiment (reporter, strain, medium): exp 4a: truncated aprE reporter, strain BJT201 with 2% xylose (RNase J1 expressed)
[2] = experiment (reporter, strain, medium): exp 2b: truncated aprE reporter, strain BJT200

Sequence | cleaved RNA product abundance [1] | cleaved RNA product abundance [2]
ACAGACGAAGGAGCCGCAAAGAAGATATTAAGGGATGAATAATCCGTCAATATAAATATCTCTCACTTATTTAAA | 0.239 | 
ACAGACGAAGGAGCCGCAAAGAAGATATTAAGGGATGAATAATCCTTCAATATAAATATCTCTCACTTATTTAAA | 0.762 | 
ACAGACGAAGGAGCCGCAAAGAAGATATTAAGGGATGAATAATCGCTCAATATAAATATCTCTCACTTATTTAAA | 0.228 | 
ACAGACGAAGGAGCCGCAAAGAAGATATTAAGGGATGAATAATTCCTCAATATAAATATCTCTCACTTATTTAAA | 1.05 | 
ACAGACGAAGGAGCCGCAAAGAAGATATTAAGGGATGAATGATCCCTCAATATAAATATCTCTCACTTATTTAAA | 0.565 | 
ACAGACGAAGGAGCCGCAAAGAAGATATTAAGGGATGAATTATCCCTCAATATAAATATCTCTCACTTATTTAAA | 0.572 | 
ACAGACGAAGGAGCCGCAAAGAAGATATTAAGGGATGATTAATCCCTCAATATAAATATCTCTCACTTATTTAAA | 0.803 | 
ACAGACGAAGGAGCCGCAAAGAAGATATTAAGGGATGTATAATCCCTCAATATAAATATCTCTCACTTATTTAAA | 0.603 | 
ACAGACGAAGGAGCCGCAAAGAAGATATTAAGGGATTAATAATCCCTCAATATAAATATCTCTCACTTATTTAAA | 0.608 | 
ACAGACGAAGGAGCCGCAAAGAAGATATTAAGGGTTGAATAATCCCTCAATATAAATATCTCTCACTTATTTAAA |  | 0.43
ACAGACGAAGGAGCCGCAAAGAAGATATTAAGGTATGAATAATCCCTCAATATAAATATCTCTCACTTATTTAAA | 0.117 | 0.104
ACAGACGAAGGAGCCGCAAAGAAGATATTAAGGTATGAATAATCTCTCAATATAAATATCTCTCACTTATTTAAA |  | 0.105
ACAGACGAAGGAGCCGCAAAGAAGATATTAAGTGATGAATAATCCCTCAATATAAATATCTCTCACTTATTTAAA | 0.137 | 0.103
ACAGACGAAGGAGCCGCAAAGAAGATATTAATGGATGAATAATCCCTCAATATAAATATCTCTCACTTATTTAAA | 0.173 | 0.132
ACAGACGAAGGAGCCGCAAAGAAGATATTACGGGATGAATAATCCCTCAATATAAATATCTCTCACTTATTTAAA | 0.351 | 0.409
ACAGACGAAGGAGCCGCAAAGAAGATCTTAAGGGATGAATAATCCCTCAATATAAATATCTCTCACTTATTTAAA | 0.166 | 
ACAGACGAAGGAGCCGCAAAGAAGATGTTAAGGGATGAATAATCCCTCAATATAAATATCTCTCACTTATTTAAA | 0.741 | 0.513
ACAGACGAAGGAGCCGCAAAGAAGATTTTAAGGCATGAATAATCCCTCAATATAAATATCTCTCACTTATTTAAA | 0.143 | 
ACAGACGAAGGAGCCGCAAAGAAGCTAATAAGGGATGAATAATCCCTCAATATAAATATCTCTCACTTATTTAAA | 0.286 | 0.247
ACAGACGAAGGAGCCGCAAAGAAGCTATAAAGGGATGAATAATCCCTCAATATAAATATCTCTCACTTATTTAAA | 0.357 | 0.272
ACAGACGAAGGAGCCGCAAAGAAGCTATTAAAGGATGAATAATCCCTCAATATAAATATCTCTCACTTATTTAAA | 0.144 | 0.111
ACAGACGAAGGAGCCGCAAAGAAGCTATTAAGAGATGAATAATCCCTCAATATAAATATCTCTCACTTATTTAAA | 0.123 | 0.0974
ACAGACGAAGGAGCCGCAAAGAAGCTATTAAGCGATGAATAATCCCTCAATATAAATATCTCTCACTTATTTAAA | 0.0691 | 
ACAGACGAAGGAGCCGCAAAGAAGCTATTAAGGAATGAATAATCCCTCAATATAAATATCTCTCACTTATTTAAA | 0.101 | 0.108
ACAGACGAAGGAGCCGCAAAGAAGCTATTAAGGCATGAATAATCCCTCAATATAAATATCTCTCACTTATTTAAA |  | 0.0626
ACAGACGAAGGAGCCGCAAAGAAGCTATTAAGGGAAGAATAATCCCTCAATATAAATATCTCTCACTTATTTAAA | 0.4 | 0.265
ACAGACGAAGGAGCCGCAAAGAAGCTATTAAGGGACGAATAATCCCTCAATATAAATATCTCTCACTTATTTAAA | 0.436 | 
ACAGACGAAGGAGCCGCAAAGAAGCTATTAAGGGAGGAATAATCCCTCAATATAAATATCTCTCACTTATTTAAA | 0.24 | 0.287
ACAGACGAAGGAGCCGCAAAGAAGCTATTAAGGGATAAATAATCCCTCAATATAAATATCTCTCACTTATTTAAA |  | 0.479
